Experimental data reported in patent US20180179283A1.

Assays:
[1] = target: HLA-A2 positive, antigen negative cells; experiment: FACS, SKMEL-5 cells (melanoma, WT1 mRNA -)
[2] = target: HLA-A2 positive, antigen negative cells; experiment: FACS, U266 cells (multiple myeloma, WT1 mRNA -)
[3] = target: HLA-A2/WT1-S11 peptide on T2 cells (human); experiment: FACS, T2 cells loaded with WT1-S11 [..] (heteroclitic pep.), anti-human PE
[4] = target: HLA-A2/WT1 126-134 peptide complex on cells (human); experiment: FACS, T2 cells loaded with 10^-4M WT1 peptide
[5] = target: HLA-A2/WT1-S13 peptide on T2 cells (human); experiment: FACS, T2 cells loaded with WT1-S13 [..], anti-human PE
[6] = target: HLA-A2/WT1 126-134 peptide complex on cells (human); experiment: FACS, T2 cells loaded with WT1 peptide 1x10e-4M, anti-human PE
[7] = target: HLA-A2/WT1-S22 peptide on T2 cells (human); experiment: FACS, T2 cells loaded with WT1-S22 [..], anti-human PE
[8] = target: HLA-A2/Tyrosinase 369-377 peptide complex on cells (human); experiment: FACS, T2 cells loaded with TyrD [..], anti-human PE
[9] = target: HLA-A2 positive, antigen negative cells; experiment: FACS, JVM-2 cells (lymphoblast, WT1 mRNA -)
[10] = target: HLA-A2/WT1-S10 peptide on T2 cells (human); experiment: FACS, T2 cells loaded with WT1-S10 [..], anti-human PE
[11] = target: HLA-A2 positive, antigen negative cells; experiment: FACS, IM-9 cells (multiple myeloma, WT1 mRNA -)
[12] = target: HLA-A2 positive, antigen negative cells; experiment: FACS, A498 cells (printed: non-small cell lung adenocarcinoma, WT1 mRNA -)
[13] = target: HLA-A2/MAGE-A9 223-231 peptide complex on cells (human); experiment: FACS, T2 cells loaded with MAGE-A9 [..], anti-human PE
[14] = target: HLA-A2/WT1 126-134 peptide complex on cells (human); experiment: FACS, T2 cells loaded with WT1 peptide 1x10e-5M, anti-human PE
[15] = target: HLA-A2/WT1 126-134 peptide complex on cells (human); experiment: FACS, BV173 cells (B cell precursor leukemia, WT1 mRNA +)
[16] = target: HLA-A2/WT1-S16 peptide on T2 cells (human); experiment: FACS, T2 cells loaded with WT1-S16 [..], anti-human PE
[17] = target: HLA-A2/WT1-S6 peptide on T2 cells (human); experiment: FACS, T2 cells loaded with WT1-S6 [..], anti-human PE
[18] = target: HLA-A2/WT1-S7 peptide on T2 cells (human); experiment: FACS, T2 cells loaded with WT1-S7 [..], anti-human PE
[19] = target: Unloaded T2 (human); experiment: FACS, unloaded T2 cells, anti-human PE
[20] = target: HLA-A2/WT1 126-134 peptide complex on cells (human); experiment: FACS, T2 cells loaded with WT1 1x10e-4M in DMSO, anti-human PE
[21] = target: HLA-A2/MAGE-A4 230-239 peptide complex on cells (human); experiment: FACS, T2 cells loaded with MAGE-A4 [..], anti-human PE
[22] = target: HLA-A2/PAP 112-120 peptide complex on cells (human); experiment: FACS, T2 cells loaded with PAP112, anti-human PE
[23] = target: HLA-A2 positive, antigen negative cells; experiment: FACS, 501A cells (melanoma, WT1 mRNA -)
[24] = target: HLA-A2/WT1 126-134 peptide complex on cells (human); experiment: FACS, SET-2 cells (essential thrombocythemia, WT1 mRNA +)

MFI [1]: 4.3
MFI [2]: 1.9
MFI [3]: 1.1
MFI [4]: 18
MFI [5]: 1.1
MFI [6]: 17.9
MFI [7]: 1.1
MFI [8]: 1
MFI [9]: 1
MFI [10]: 1.4
MFI [11]: 1.2
MFI [12]: 5.2
MFI [13]: 1
MFI [14]: 1.6
MFI [15]: 8.1
MFI [16]: 1.1
MFI [17]: 5
MFI [18]: 3.1
MFI [19]: 1
MFI [20]: 17.9
MFI [21]: 1.1
MFI [22]: 1.1
MFI [23]: 10.7
MFI [24]: 26.3
Substance: ESK1 TCR-like antibody
